Measured values: publication PMC7229837, “Molecular architecture of the DNA-binding sites of the P-loop ATPases MipZ and ParA from Caulobacter crescentus”

Legend:
ParA WT = target: T1, ParA WT (Caulobacter crescentus, UniProt B8GW31 1-267); experiment: HDX-MS; 1 mM ATPgS; regions R1, R2, R4 protected; EMSA: 10 mM HEPES/NaOH pH 7.2, 150 mM NaCl, 10 mM MgCl2, 0.05% Tween 20, 0.46 mM ATPgS, room temp; BLI: 50 mM HEPES/NaOH pH 7.2, 50 mM NaCl, 5 mM MgCl2, 0.1 mM; conditions: protein: recombinant; tags: C-terminal His6; chain copies: 2; blunt
T1 sequence: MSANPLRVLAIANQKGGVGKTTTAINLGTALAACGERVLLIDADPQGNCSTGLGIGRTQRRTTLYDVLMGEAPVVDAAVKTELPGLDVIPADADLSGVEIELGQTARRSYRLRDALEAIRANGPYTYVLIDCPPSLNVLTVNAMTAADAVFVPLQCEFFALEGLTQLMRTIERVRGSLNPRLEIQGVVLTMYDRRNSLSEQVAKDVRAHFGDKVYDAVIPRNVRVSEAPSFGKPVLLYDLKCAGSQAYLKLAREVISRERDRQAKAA

MipZ D42A = target: T2, MipZ D42A (Caulobacter crescentus, UniProt Q9A6C9 1-278, D42A); experiment: HDX-MS; 1 mM ATPgS; regions R1, R3, R4 protected; EMSA: 10 mM HEPES/NaOH pH 7.2, 150 mM NaCl, 10 mM MgCl2, 0.05% Tween 20, 0.46 mM ATPgS, room temp; BLI: 50 mM HEPES/NaOH pH 7.2, 50 mM NaCl, 5 mM MgCl2, 0.1 mM; conditions: protein: recombinant; tags: C-terminal His6 (pET21a); chain copies: 2; blunt
T2 sequence: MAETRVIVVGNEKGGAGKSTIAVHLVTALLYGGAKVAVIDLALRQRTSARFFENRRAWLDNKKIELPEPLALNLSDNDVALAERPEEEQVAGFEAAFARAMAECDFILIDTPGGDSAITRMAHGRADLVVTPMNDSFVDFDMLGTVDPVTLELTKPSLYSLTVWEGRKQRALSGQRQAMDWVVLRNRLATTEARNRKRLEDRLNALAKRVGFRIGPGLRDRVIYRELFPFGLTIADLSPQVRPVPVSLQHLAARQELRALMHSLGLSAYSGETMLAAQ

B1: ran14-up/ran14-lo 14 bp (dsDNA)
DNA 1: GCCGCCGCCGCCGC
DNA 2: GCGGCGGCGGCGGC
binding result (ParA WT): binds
binding result (MipZ D42A): binds
